From the supplement of paper PMC7877785
± gives the uncertainty stated by the source.

Test: self-splicing fitness, log relative to wild type (ln ratio); higher = more splicing; Tetrahymena group I intron in knt gene, E. coli kanamycin selection, DiMSum; sequences stand for … in CUCUCU…GGAGGGAAAAGUUAUCAGGCAUGCACCUGGUAGCUAGUCUUUAAACCAAUAGAUUGCAUCGGUUUAAAAGGCAAGACCGUCAAAUUGCGGGAAAGGGGUCAACAGCCGUUCAGUACCAAGUCUCAGGGGAAACUUUGAGAUGGCCUUGCAAAGGGUAUGGUAAUAAGCUGACGGACAUGGUCCUAACCACGCAGCCAAGUCCUAAGUCAACAGAUCUUCUGUUGAUAUGGAUGCAGUUCACAGACUAAAUGUCGGUCGGGGAAGAUGUAUUCUUCUCAUAAGAUAUAGUCGGACCUCUCCUUAAUGGGAGCUAGCGGAUGAAGUGAUGCAACACUGGAGCCGCUGGGAACUAAUUUGUAUGCGAAAGUAUAUUGAUUAGUUUUGGAGUACUCGUGGUCG
Summary of the method: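 Six replicate transformations of E. coli BL21(DE3) with a pET-22b(+) library were grown overnight at 37°C or 30°C. The library randomised all eight P1ex-region intron nucleotides, the intron lying in the knt kanamycin-resistance gene, and plates were LB agar with or without 25 μg/mL kanamycin plus 100 μg/mL carbenicillin, 50 μM IPTG and 0.2% rhamnose. Pooled colonies were amplicon-sequenced on an Illumina HiSeq 2500, and fitness is the DiMSum error-weighted combination of wild-type-normalised replicate fold changes, kanamycin versus none.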

GGGAAGCAAUAUUACGCAUA
self-splicing fitness (ln) (30 °C): -2.35 ± 0.18 | self-splicing fitness (ln) (37 °C): -1.25 ± 0.14

ACGAAGCAAUAUUACGCCCA
self-splicing fitness (ln) (30 °C): -1.11 ± 0.17 | self-splicing fitness (ln) (37 °C): -0.748 ± 0.26

UUGUAGCAAUAUUACGAGUC
self-splicing fitness (ln) (30 °C): -3.94 ± 0.42 | self-splicing fitness (ln) (37 °C): -2.67 ± 0.32

CCUGAGCAAUAUUACGUCAG
self-splicing fitness (ln) (30 °C): -2.64 ± 0.099 | self-splicing fitness (ln) (37 °C): -2.19 ± 0.099

UGGAAGCAAUAUUACGUCCA
self-splicing fitness (ln) (30 °C): -2.02 ± 0.39

CUAGAGCAAUAUUACGGCAG
self-splicing fitness (ln) (30 °C): 0.0667 ± 0.08 | self-splicing fitness (ln) (37 °C): 0.49 ± 0.11

UACGAGCAAUAUUACGAAGA
self-splicing fitness (ln) (30 °C): -2.13 ± 0.37

ACAUAGCAAUAUUACGCCAC
self-splicing fitness (ln) (30 °C): -3.57 ± 0.27 | self-splicing fitness (ln) (37 °C): -0.959 ± 0.17

AAGUAGCAAUAUUACGCCUU
self-splicing fitness (ln) (30 °C): -1.39 ± 0.12 | self-splicing fitness (ln) (37 °C): -1.01 ± 0.19

GCGUAGCAAUAUUACGUGAU
self-splicing fitness (ln) (30 °C): -2.79 ± 0.24 | self-splicing fitness (ln) (37 °C): -1.56 ± 0.19

AGAAAGCAAUAUUACGGCAC
self-splicing fitness (ln) (30 °C): -0.435 ± 0.087 | self-splicing fitness (ln) (37 °C): -0.727 ± 0.13

AAAGAGCAAUAUUACGUUAG
self-splicing fitness (ln) (30 °C): -3.49 ± 0.15 | self-splicing fitness (ln) (37 °C): -3.11 ± 0.25

CACCAGCAAUAUUACGCUGG
self-splicing fitness (ln) (30 °C): -5.21 ± 0.25 | self-splicing fitness (ln) (37 °C): -2.41 ± 0.16

UGCCAGCAAUAUUACGUAGC
self-splicing fitness (ln) (30 °C): -3.9 ± 0.37 | self-splicing fitness (ln) (37 °C): -1.64 ± 0.17

GCGCAGCAAUAUUACGGAUA
self-splicing fitness (ln) (30 °C): -1.98 ± 0.16 | self-splicing fitness (ln) (37 °C): -0.989 ± 0.13

CUCCAGCAAUAUUACGAGGA
self-splicing fitness (ln) (30 °C): -2.35 ± 0.11 | self-splicing fitness (ln) (37 °C): -2.99 ± 0.18

UUAGAGCAAUAUUACGUGCC
self-splicing fitness (ln) (37 °C): -1.58 ± 0.33

AGUAAGCAAUAUUACGGUCC
self-splicing fitness (ln) (30 °C): -0.766 ± 0.061 | self-splicing fitness (ln) (37 °C): -0.91 ± 0.08

CACGAGCAAUAUUACGUCAU
self-splicing fitness (ln) (30 °C): -3.65 ± 0.19 | self-splicing fitness (ln) (37 °C): -2.49 ± 0.21

UACAAGCAAUAUUACGCAGA
self-splicing fitness (ln) (30 °C): -2.31 ± 0.15 | self-splicing fitness (ln) (37 °C): -1.29 ± 0.1

AACUAGCAAUAUUACGCUUA
self-splicing fitness (ln) (30 °C): -0.632 ± 0.087 | self-splicing fitness (ln) (37 °C): -0.749 ± 0.11

CUACAGCAAUAUUACGGAAC
self-splicing fitness (ln) (30 °C): -4.6 ± 0.34 | self-splicing fitness (ln) (37 °C): -3.47 ± 0.35

UUGAAGCAAUAUUACGUAGC
self-splicing fitness (ln) (30 °C): -3.42 ± 0.28 | self-splicing fitness (ln) (37 °C): -2.53 ± 0.33

UGCCAGCAAUAUUACGUGAG
self-splicing fitness (ln) (30 °C): -2.12 ± 0.11 | self-splicing fitness (ln) (37 °C): -0.54 ± 0.097

AAAUAGCAAUAUUACGAGUG
self-splicing fitness (ln) (30 °C): -2.42 ± 0.12 | self-splicing fitness (ln) (37 °C): -0.435 ± 0.1

AAUGAGCAAUAUUACGGGCC
self-splicing fitness (ln) (37 °C): -1.76 ± 0.39

GUCGAGCAAUAUUACGUCAU
self-splicing fitness (ln) (30 °C): -1.8 ± 0.12 | self-splicing fitness (ln) (37 °C): -1.13 ± 0.1

GGCGAGCAAUAUUACGGAUA
self-splicing fitness (ln) (37 °C): -2.08 ± 0.37

UACUAGCAAUAUUACGUUCC
self-splicing fitness (ln) (30 °C): -2.22 ± 0.32 | self-splicing fitness (ln) (37 °C): -2.33 ± 0.35

CACAAGCAAUAUUACGCAAG
self-splicing fitness (ln) (30 °C): -1.54 ± 0.087 | self-splicing fitness (ln) (37 °C): -0.814 ± 0.1

CUUCAGCAAUAUUACGUUGG
self-splicing fitness (ln) (30 °C): -3.67 ± 0.23 | self-splicing fitness (ln) (37 °C): -4.08 ± 0.46

AGACAGCAAUAUUACGAGUU
self-splicing fitness (ln) (30 °C): -2.26 ± 0.086 | self-splicing fitness (ln) (37 °C): -1.14 ± 0.099

UGGGAGCAAUAUUACGAGGA
self-splicing fitness (ln) (37 °C): -3.9 ± 0.47

UUCUAGCAAUAUUACGUUUG
self-splicing fitness (ln) (30 °C): -3.49 ± 0.35 | self-splicing fitness (ln) (37 °C): -2.66 ± 0.4

GCUCAGCAAUAUUACGCAGG
self-splicing fitness (ln) (30 °C): -1.52 ± 0.084 | self-splicing fitness (ln) (37 °C): -1.29 ± 0.098

CCACAGCAAUAUUACGCAGC
self-splicing fitness (ln) (30 °C): -3.88 ± 0.22 | self-splicing fitness (ln) (37 °C): -2.83 ± 0.25

CAAUAGCAAUAUUACGUGUU
self-splicing fitness (ln) (30 °C): -4.08 ± 0.16 | self-splicing fitness (ln) (37 °C): -2.95 ± 0.17

UGAUAGCAAUAUUACGGACC
self-splicing fitness (ln) (30 °C): -1.26 ± 0.26

AGGUAGCAAUAUUACGCACA
self-splicing fitness (ln) (30 °C): -0.467 ± 0.017 | self-splicing fitness (ln) (37 °C): 0.0312 ± 0.034

GUACAGCAAUAUUACGGCAU
self-splicing fitness (ln) (30 °C): -0.301 ± 0.081 | self-splicing fitness (ln) (37 °C): -0.278 ± 0.11
